# Test system: Escherichia coli TOP10
# Assay: shrunken log2 fold change of peptide-encoding DNA abundance (4.5 h post-induction vs induction); higher = less antimicrobial activity (less host growth inhibition)
# Details: time post-induction: 4.5 h; library: site-saturation at positions 5, 18, 19, 20
# 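Further: peptides expressed intracellularly from a pBAD plasmid library in pooled LB shake-flask culture, induced with 0.3% L-arabinose, DNA abundance read by NGS, three biological replicates, DESeq2 with apeglm shrinkage.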
row,Sequence,shrunken log2 fold change
1,RRIRVRPPRLPRPRPRPWAGPRP,0.116
2,RRIRYRPPRLPRPRPRPMCIPRP,-0.101
3,RRIRVRPPRLPRPRPRPEQSPRP,0.362
4,RRIRYRPPRLPRPRPRPRVVPRP,-0.405
5,RRIRHRPPRLPRPRPRPQEDPRP,-0.106
6,RRIRYRPPRLPRPRPRPNTQPRP,-0.17
7,RRIRLRPPRLPRPRPRPPLYPRP,1.61
8,RRIRFRPPRLPRPRPRPCQMPRP,-0.981
9,RRIRIRPPRLPRPRPRPIQGPRP,-0.0119
10,RRIRWRPPRLPRPRPRPSNDPRP,0.391
11,RRIRWRPPRLPRPRPRPSYDPRP,-0.256
12,RRIRLRPPRLPRPRPRPCTMPRP,-0.152
13,RRIRVRPPRLPRPRPRPYYYPRP,-0.796
14,RRIRFRPPRLPRPRPRPKTIPRP,-0.223
15,RRIRFRPPRLPRPRPRPTAQPRP,-0.00528
16,RRIRKRPPRLPRPRPRPTCIPRP,-0.176
17,RRIRDRPPRLPRPRPRPIYCPRP,0.0039
18,RRIRDRPPRLPRPRPRPSGHPRP,1.17
19,RRIRIRPPRLPRPRPRPSEPPRP,-0.192
20,RRIRQRPPRLPRPRPRPWAHPRP,-0.0595
21,RRIRDRPPRLPRPRPRPSDSPRP,-0.0584
22,RRIRQRPPRLPRPRPRPPMCPRP,-0.213

row,Sequence,shrunken log2 fold change
1,RRIRKRPPRLPRPRPRPMWSPRP,0.123
2,RRIRNRPPRLPRPRPRPMMSPRP,0.0191
3,RRIRYRPPRLPRPRPRPHTNPRP,-0.661
4,RRIRERPPRLPRPRPRPTWDPRP,-0.327
5,RRIRWRPPRLPRPRPRPKNNPRP,-0.136
6,RRIRIRPPRLPRPRPRPCAWPRP,-0.0154
7,RRIRTRPPRLPRPRPRPYGEPRP,-0.074
8,RRIRNRPPRLPRPRPRPLTFPRP,-0.0233
9,RRIRNRPPRLPRPRPRPQLSPRP,-0.2
10,RRIRNRPPRLPRPRPRPMHEPRP,0.0425
11,RRIRWRPPRLPRPRPRPNNAPRP,-0.295
12,RRIRNRPPRLPRPRPRPNPLPRP,0.0887
13,RRIRVRPPRLPRPRPRPVHEPRP,-0.104
14,RRIRHRPPRLPRPRPRPHERPRP,-0.00134
15,RRIRKRPPRLPRPRPRPIQVPRP,-0.137
16,RRIRMRPPRLPRPRPRPNVTPRP,0.0238
17,RRIRGRPPRLPRPRPRPHLAPRP,0.601
18,RRIRMRPPRLPRPRPRPDECPRP,2.8
19,RRIRNRPPRLPRPRPRPERYPRP,0.0573
20,RRIRARPPRLPRPRPRPVINPRP,-0.383
21,RRIRCRPPRLPRPRPRPCDRPRP,-0.351
22,RRIRCRPPRLPRPRPRPNHTPRP,-0.536

row,Sequence,shrunken log2 fold change
1,RRIRFRPPRLPRPRPRPCQGPRP,-0.198
2,RRIRMRPPRLPRPRPRPPFNPRP,0.175
3,RRIRCRPPRLPRPRPRPESEPRP,0.237
4,RRIRPRPPRLPRPRPRPWTNPRP,-0.0167
5,RRIRARPPRLPRPRPRPMMVPRP,0.212
6,RRIRERPPRLPRPRPRPGMPPRP,-0.0315
7,RRIRIRPPRLPRPRPRPHPVPRP,0.0514
8,RRIRNRPPRLPRPRPRPSKWPRP,-0.213
9,RRIRYRPPRLPRPRPRPFNAPRP,-2.15
10,RRIRCRPPRLPRPRPRPMMMPRP,2.91
11,RRIRFRPPRLPRPRPRPHHIPRP,-0.822
12,RRIRHRPPRLPRPRPRPHRLPRP,-0.0453
13,RRIRGRPPRLPRPRPRPRGRPRP,1.52
14,RRIRGRPPRLPRPRPRPPPTPRP,1.47
15,RRIRERPPRLPRPRPRPTDMPRP,-0.375
16,RRIRHRPPRLPRPRPRPKMRPRP,0.312
17,RRIRIRPPRLPRPRPRPPQMPRP,-0.0135
18,RRIRGRPPRLPRPRPRPRKDPRP,0.726
19,RRIRKRPPRLPRPRPRPLHHPRP,0.141
20,RRIRFRPPRLPRPRPRPTWCPRP,-0.0549
21,RRIRDRPPRLPRPRPRPQLQPRP,-0.16
22,RRIRKRPPRLPRPRPRPLFCPRP,0.177

row,Sequence,shrunken log2 fold change
1,RRIRPRPPRLPRPRPRPCRNPRP,-0.176
2,RRIRNRPPRLPRPRPRPEWSPRP,0.406
3,RRIRRRPPRLPRPRPRPVWVPRP,0.566
4,RRIRNRPPRLPRPRPRPACPPRP,0.307
5,RRIRPRPPRLPRPRPRPVHQPRP,-0.00254
6,RRIRMRPPRLPRPRPRPETNPRP,2.42
7,RRIRSRPPRLPRPRPRPETNPRP,-0.0626
8,RRIRCRPPRLPRPRPRPRAGPRP,0.472
9,RRIRSRPPRLPRPRPRPWQPPRP,0.155
10,RRIRHRPPRLPRPRPRPERYPRP,-0.0389
11,RRIRNRPPRLPRPRPRPWSQPRP,-0.0539
12,RRIRQRPPRLPRPRPRPHIHPRP,-0.476
13,RRIRERPPRLPRPRPRPTMGPRP,-0.253
14,RRIRIRPPRLPRPRPRPNENPRP,-0.59
15,RRIRCRPPRLPRPRPRPQDCPRP,-0.241
16,RRIRMRPPRLPRPRPRPLPNPRP,0.098
17,RRIRCRPPRLPRPRPRPAGQPRP,-0.109
18,RRIRPRPPRLPRPRPRPFDLPRP,-0.736
19,RRIRKRPPRLPRPRPRPYYSPRP,-0.373
20,RRIRERPPRLPRPRPRPFWSPRP,-0.109
21,RRIRIRPPRLPRPRPRPKYDPRP,-0.51
22,RRIRLRPPRLPRPRPRPIHEPRP,0.139

row,Sequence,shrunken log2 fold change
1,RRIRSRPPRLPRPRPRPQTWPRP,-0.164
2,RRIRDRPPRLPRPRPRPAMHPRP,0.527
3,RRIRPRPPRLPRPRPRPFIWPRP,-0.271
4,RRIRRRPPRLPRPRPRPMQNPRP,0.362
5,RRIRARPPRLPRPRPRPYRCPRP,-0.174
6,RRIRNRPPRLPRPRPRPNEMPRP,-0.00174
7,RRIRGRPPRLPRPRPRPEWAPRP,1.07
8,RRIRHRPPRLPRPRPRPRPVPRP,0.22
9,RRIRDRPPRLPRPRPRPMRQPRP,0.0681
10,RRIRYRPPRLPRPRPRPLWGPRP,-0.203
11,RRIRTRPPRLPRPRPRPPSYPRP,-0.0622
12,RRIRGRPPRLPRPRPRPIVVPRP,0.962
13,RRIRGRPPRLPRPRPRPKRDPRP,0.738
14,RRIRARPPRLPRPRPRPLMLPRP,0.32
15,RRIRDRPPRLPRPRPRPDCKPRP,0.0499
16,RRIRWRPPRLPRPRPRPVMTPRP,0.569
17,RRIRWRPPRLPRPRPRPGANPRP,0.0566
18,RRIRHRPPRLPRPRPRPACKPRP,-0.164
19,RRIRTRPPRLPRPRPRPPIMPRP,-0.454
20,RRIRIRPPRLPRPRPRPTYYPRP,-0.827
21,RRIRMRPPRLPRPRPRPFTKPRP,-0.319

# Reference: the supplement of paper PMC9112550, “Optimization of the antimicrobial peptide Bac7 by deep mutational scanning” (BMC Biology, 2022)
